Results published in patent publication US6831059 (ALLERGAN SALES, dated 2004).

Key:
native BoNT/A H chain = native BoNT/A H chain (UniProt P0DPI0)
native TeTx H chain [1] = biological target: native TeTx H chain (UniProt P04958)
native TeTx H chain [2] = biological target: T1, native TeTx H chain (UniProt P04958 458-1315); experiment: reassociation by dialysis, non-reducing SDS-PAGE, silver staining
T1 sequence: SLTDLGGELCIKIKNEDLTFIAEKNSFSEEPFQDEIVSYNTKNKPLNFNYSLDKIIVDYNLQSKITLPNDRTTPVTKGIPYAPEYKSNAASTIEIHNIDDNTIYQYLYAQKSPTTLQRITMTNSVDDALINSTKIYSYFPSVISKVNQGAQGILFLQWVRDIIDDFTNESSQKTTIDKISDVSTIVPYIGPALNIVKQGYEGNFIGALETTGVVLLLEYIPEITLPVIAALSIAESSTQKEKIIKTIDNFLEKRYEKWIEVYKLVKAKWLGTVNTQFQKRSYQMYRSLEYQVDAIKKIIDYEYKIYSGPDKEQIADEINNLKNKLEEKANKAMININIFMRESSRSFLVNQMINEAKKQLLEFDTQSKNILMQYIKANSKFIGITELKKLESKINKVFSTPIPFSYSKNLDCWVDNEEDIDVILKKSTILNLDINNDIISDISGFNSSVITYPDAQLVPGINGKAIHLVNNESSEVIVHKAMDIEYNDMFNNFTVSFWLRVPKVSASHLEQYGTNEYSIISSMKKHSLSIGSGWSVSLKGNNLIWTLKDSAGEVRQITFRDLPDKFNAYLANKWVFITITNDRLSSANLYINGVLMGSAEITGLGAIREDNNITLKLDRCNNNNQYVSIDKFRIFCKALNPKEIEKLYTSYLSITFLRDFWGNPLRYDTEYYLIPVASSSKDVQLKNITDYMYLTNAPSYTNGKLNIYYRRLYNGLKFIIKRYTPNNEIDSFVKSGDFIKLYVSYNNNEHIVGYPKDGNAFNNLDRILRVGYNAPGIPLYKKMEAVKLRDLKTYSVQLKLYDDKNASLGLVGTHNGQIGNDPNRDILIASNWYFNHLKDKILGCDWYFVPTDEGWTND

Chain of native BoNT/A H chain (P0DPI0 449-1296 limits assumed): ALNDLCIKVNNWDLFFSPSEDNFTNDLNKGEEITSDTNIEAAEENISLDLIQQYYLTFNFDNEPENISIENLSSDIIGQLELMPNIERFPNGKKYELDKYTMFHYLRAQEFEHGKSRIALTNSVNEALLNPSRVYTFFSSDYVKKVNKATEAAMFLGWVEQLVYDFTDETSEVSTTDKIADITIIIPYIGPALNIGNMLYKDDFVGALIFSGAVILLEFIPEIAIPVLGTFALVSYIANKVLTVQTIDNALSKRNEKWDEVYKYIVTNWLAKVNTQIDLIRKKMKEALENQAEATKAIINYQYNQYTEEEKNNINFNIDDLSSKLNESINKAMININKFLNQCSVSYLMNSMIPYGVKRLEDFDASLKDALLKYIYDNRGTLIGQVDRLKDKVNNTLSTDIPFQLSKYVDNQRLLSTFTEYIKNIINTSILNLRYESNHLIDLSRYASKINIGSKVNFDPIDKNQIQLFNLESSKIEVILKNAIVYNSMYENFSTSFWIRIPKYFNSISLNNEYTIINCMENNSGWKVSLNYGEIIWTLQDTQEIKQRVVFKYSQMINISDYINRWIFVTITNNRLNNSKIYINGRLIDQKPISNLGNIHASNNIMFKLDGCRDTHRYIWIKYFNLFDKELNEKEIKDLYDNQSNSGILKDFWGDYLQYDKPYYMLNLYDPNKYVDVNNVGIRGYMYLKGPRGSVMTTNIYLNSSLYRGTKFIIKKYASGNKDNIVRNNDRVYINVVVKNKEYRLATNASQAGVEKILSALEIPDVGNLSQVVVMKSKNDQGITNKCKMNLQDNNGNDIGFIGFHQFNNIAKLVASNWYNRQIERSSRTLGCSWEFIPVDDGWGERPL

## native BoNT/A L chain (from UniProt P0DPI0 2-448) (enzyme)
Native BoNT/A H chain
  proportion of L chain reassociated with the H chain: > 90%

## recombinant wild-type TeTx L chain (from UniProt P04958 1-457) (enzyme)
Native TeTx H chain [1]
  relative amount of the dichain species: 55.1%

B1: native TeTx L chain (enzyme)
chain: PITINNFRYSDPVNNDTIIMMEPPYCKGLDIYYKAFKITDRIWIVPERYEFGTKPEDFNPPSSLIEGASEYYDPNYLRTDSDKDRFLQTMVKLFNRIKNNVAGEALLDKIINAIPYLGNSYSLLDKFDTNSNSVSFNLLEQDPSGATTKSAMLTNLIIFGPGPVLNKNEVRGIVLRVDNKNYFPCRDGFGSIMQMAFCPEYVPTFDNVIENITSLTIGKSKYFQDPALLLMHELIHVLHGLYGMQVSSHEIIPSKQEIYMQHTYPISAEELFTFGGQDANLISIDIKNDLYEKTLNDYKAIANKLSQVTSCNDPNIDIDSYKQIYQQKYQFDKDSNGQYIVNEDKFQILYNSIMYGFTEIELGKKFNIKTRLSYFSMNHDPVKIPNLLDDTIYNDTEGFNIESKDLKSEYKGQNMRVNTNAFRNVDGSGLVSKLIGLCKKIIPPTNIRENLYNRTA
Native TeTx H chain [2]
  binding result: binds
